This is an account of results in patent publication US20220143196A1 (ARIZONA BOARD OF REGENTS ON BEHALF OF THE UNIVERSITY OF …, published 2022).

Assay [1] addresses T1, human melanocortin 1 receptor (MC1R) (human, UniProt Q01726 1-317).
T1 construct: whole, on cells; also called MC1 receptor
The assay is described as follows: competitive binding vs 125I-NDP-α-MSH on whole HEK293 cells overexpressing human MC1R.
Method: (§1) Competitive binding assays were performed on whole cells. Stably transfected HEK293 cell lines overexpressing human MC1R, MC3R, MC4R or MC5R were seeded on 96-well plates 48 h before the assay and grown to 100,000 cells per well. For the assay, the medium was removed, and cells were washed twice with a binding buffer containing minimum essential medium with Earle's salt (MEM, GIBCO), 25 mM HEPES (pH 7.4), 0.2% bovine serum albumin, 1 mM 1,10-phenanthrolone, 0.5 mg/L leupeptin and 200 mg/L bacitracin. […] The medium was subsequently removed, and the cells were washed twice with the binding buffer. The cells were lysed by 50 μL of 0.1 mM NaOH and 50 μL of 1% Triton X-100. The plates were left dry overnight under the hood, and 50 μL of scintillation fluid (OptiPhase SuperMix, PerkinElmer) were added in each well. The radioactivity was measured using MicroBeta 2 microplate counter (PerkinElmer). Data were analyzed using Graphpad Prism 6 (Graphpad Software, San Diego, Calif.).

For assay [2], the target named is T2, human MC4R (human, UniProt P32245 1-332).
T2 construct: whole, on cells
In words: competitive binding vs 125I-NDP-α-MSH on whole HEK293 cells overexpressing human MC4R.
Method: as §1

The target in assay [3] is T3, human MC3R (human, UniProt P41968 1-323).
T3 construct: whole, on cells
In words: competitive binding vs 125I-NDP-α-MSH on whole HEK293 cells overexpressing human MC3R.
Method: as §1

For assay [4], the target named is T4, human MC5R (human, UniProt P33032 1-325).
T4 construct: whole, on cells
In words: competitive binding vs 125I-NDP-α-MSH on whole HEK293 cells overexpressing human MC5R.
Method: as §1

T1 sequence (Q01726 whole entry): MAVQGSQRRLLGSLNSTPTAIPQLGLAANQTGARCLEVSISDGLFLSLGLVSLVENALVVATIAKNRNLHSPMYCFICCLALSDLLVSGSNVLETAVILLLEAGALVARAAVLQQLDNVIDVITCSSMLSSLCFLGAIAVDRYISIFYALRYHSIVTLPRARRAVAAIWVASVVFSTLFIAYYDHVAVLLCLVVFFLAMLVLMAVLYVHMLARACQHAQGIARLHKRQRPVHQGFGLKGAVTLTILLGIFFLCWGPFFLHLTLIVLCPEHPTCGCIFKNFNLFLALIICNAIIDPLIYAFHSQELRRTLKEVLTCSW
T2 sequence (P32245 whole entry): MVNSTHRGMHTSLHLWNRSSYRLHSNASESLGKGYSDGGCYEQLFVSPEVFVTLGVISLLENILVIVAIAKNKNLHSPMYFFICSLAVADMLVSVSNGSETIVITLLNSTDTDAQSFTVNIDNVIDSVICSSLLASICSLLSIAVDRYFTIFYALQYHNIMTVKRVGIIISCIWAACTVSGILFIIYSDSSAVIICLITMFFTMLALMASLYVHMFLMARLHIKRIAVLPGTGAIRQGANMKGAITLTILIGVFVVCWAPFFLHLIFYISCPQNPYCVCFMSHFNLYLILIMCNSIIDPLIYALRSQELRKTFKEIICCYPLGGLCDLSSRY
T3 sequence (P41968 whole entry): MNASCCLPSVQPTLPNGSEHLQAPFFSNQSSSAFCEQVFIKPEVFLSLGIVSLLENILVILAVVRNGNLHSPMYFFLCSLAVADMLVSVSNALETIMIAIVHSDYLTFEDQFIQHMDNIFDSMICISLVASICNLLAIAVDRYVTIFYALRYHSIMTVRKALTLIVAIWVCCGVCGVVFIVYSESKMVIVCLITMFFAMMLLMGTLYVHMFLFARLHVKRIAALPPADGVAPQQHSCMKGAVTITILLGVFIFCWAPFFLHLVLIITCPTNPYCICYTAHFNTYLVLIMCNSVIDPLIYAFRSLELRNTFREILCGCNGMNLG
T4 sequence (P33032 whole entry): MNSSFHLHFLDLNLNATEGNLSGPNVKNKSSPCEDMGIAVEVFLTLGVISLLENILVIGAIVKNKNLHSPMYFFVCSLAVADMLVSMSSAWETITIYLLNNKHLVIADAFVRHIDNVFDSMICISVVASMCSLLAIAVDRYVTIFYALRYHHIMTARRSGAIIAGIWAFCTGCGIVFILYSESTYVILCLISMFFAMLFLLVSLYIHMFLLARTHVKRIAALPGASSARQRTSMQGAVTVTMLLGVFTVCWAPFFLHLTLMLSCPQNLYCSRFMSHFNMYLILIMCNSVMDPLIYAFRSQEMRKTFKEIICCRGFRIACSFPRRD

B1: camptothecin (CPT)-MT-II conjugate (1) (peptide)
peptide: CXLDHFRWK
modifications: not fully specified; Cys 1 thiol joined by a disulfide to a 2-thioethyl carbonate linker carrying camptothecin; 6-aminohexanoic acid (6-Ahx) at 2; Nle at 3; D-Phe at 6; lactam cyclization between Asp 4 and Lys 9 side chains; C-terminal amide; no N-terminal acetyl on Nle (replaced by the Cys-6-Ahx spacer)
notes: also called CPT-MT-II (1); camptothecin-MT-II (1)
As for B1, the inhibition constant Ki (commonly the equilibrium dissociation constant of an inhibitor or competing ligand from its target) in assay [1] was 57 nM; in assay [2], 173 nM; in assay [3], 300 nM; in assay [4] it was 194 nM.

B2: fluorescein-MT-II conjugate (2) (peptide)
peptide: CXLDHFRWK
modifications: not fully specified; Cys 1 thiol joined by a disulfide to a 2-thioethyl carbonate linker carrying fluorescein; 6-aminohexanoic acid (6-Ahx) at 2; Nle at 3; D-Phe at 6; lactam cyclization between Asp 4 and Lys 9 side chains; C-terminal amide; no N-terminal acetyl on Nle (replaced by the Cys-6-Ahx spacer)
notes: also called fluorescein-MT-II (2); compound 2
In turn, B2 had an inhibition constant (Ki) in assay [1] of 172 nM.
